# doi:10.1101/2024.06.18.599654 (bioRxiv, 2024)
# Values joined by “and” are separate entries in the source; they are usually repeats but may differ in a detail not shown here. Identical values can stand only once.
# Molecular target: the molecule itself
# Assay: SEC
protein,measurement,value
"PE11 (Rv1169c) esterase of Mycobacterium tuberculosis, recombinant His-tagged (enzyme) MSFVTTRPDSIGETAANLHEIGVTMSAHDDGVTPLITNVESPAHDLVSIVTSMLFSMHGELYKAIARQAHVIHESFVQTLQTSKTSYWLTELANRAGTST",stoichiometry N,4 and 2
